Experimental data taken from the DeepSol protein solubility set.

test: soluble on expression in E. coli; label from the status in PepcDB or PDB records

Row | Sequence | soluble on expression in E. coli
1 | PEWDEYIAEQIESGALGEDEGAEFLERWMVQKQHPLDINTLTREDLEQFPFLNEFQIRRFLLYRHAHPEGFDSIWVLSEIAGWDRRTCLLLWPMLTVQKRSESAAASFREILSYARHDVSVHTDAILQQQEGYRPDSRHPYRGDPWGGGLRWSYAMGNRFSLGLTASKDRGEPAFDKRRKGFDSYSAHFFMEGKGAVRAVALGDYRIG | not soluble
2 | MNSPDIALIKTYLLTLQDNICAALAQADGHAEFTEECWVREEGGGGRSRVLVNGAVFEQAGVNFSHVSGAMLPASATAHRPELAGRSFQALGVSLVIHPLNPYLPTSHANVRFFIAEKPGEDAVWWFGGGFDLTPYYGFEEDAIHWHQVAHSLCQPFGEQIYPRYKKWCDDYFYIKHRQEARGIGGLFFDDLNSPDFMTCFNFTQAVGDGFLAAYMPIVARRKALGWGDRERQFQLYRRGRYVEFNLVWDRGTLFGLQTGGRTESILMSLPPLVRWEYNYQPEADSAEAALYRDFLPVKDWLAIKGETH | not soluble
3 | MLFIAFAPFGAFALEANSKNDGYSLDDIKYYKIFENEDIPKIMYALRQGDFEIIAELKNEWEIEEEDVSFEYTTSKNPLGELIRDNLYELGQKYEVFEDESDFVSKMNVWATAFTKSMMKKSSEQKDKLIVQTVNALDNLDETLNLFSERLREWYSLYFPEMDNIVKKHDIYVSLVSEYGDREEYTRTKLKKTMPSNVARTISLAAKESMGADVSEFDLKIMKNLADEIKSMYEYRESLQEYLETSMNEIAPNLTKVAGASLGARLISLAGGIERLLRLPASTIQVIGAEKALFAHLRERALPPKHGVIFQHPLIQGSPWWIHGKIARAISCKISIAIRADAFGNDISDMLIEDMNKKVAEIKEKFPEPTRKRRPRPDTRSFGNKGGQDRDRRSQGDRKPSGNRGDSKKGGKPFGKKPAGKDDRRDNRKGDRKPFGGKPKNSGNQPPKERSGEKRRDSTKKVKAERKVIGKTSSQNLEHHHHHH | soluble
4 | MAHHHHHHVSASPPQRDRGSPPTRPLSEPQDVDAPAAGTVQALRQAVEAQEACVRLLRARQAAREALLRHTRRLLTADDSIEWPGSVEQLVRQVEASLHKLQQAHSEAAAPAATTADNVAPTSAPSRSPRNAAGDADPSADPLARIFHSGVEAQLAAVAEPPHTLPASTLASRSSTAKRRKEAGESGLTNAVSTTSPPPGGPFPPRSAAMTALLARSASRQEAGHAAMLAALSALELSLMSNSGATEVGRDVHNAEPAWLRQVDSDSANDDDAAPEEQQQEKEGNRGDIASSDYSDDFECGSSTSSGADD | soluble
5 | MKNTTLYTYRDYFVIRGGKPLTGKVKISGAKNAALPIMFATILTEEPCTITNVPDLLDVRNTLLLLRELGAELEFLNNTVFINPSINSFITNQEIIRRMRASVLSLGPLLGRFGRAVVGLPGGCSIGARPIDQHLKFFKEAGADVEVREGYVYVNLKEKRRVHFKFDLVTVTGTENALLYLASVPEESILENIALEPEVMDLIEVLKKMGAHVKVEGRSAYVKGSENLKGFTHSVIPDRIEAGTFMVGAVLTDGEILLENARINHLRAVVEKLKLIGGEVVEENGNLRVFRKESLRACDIETQVYPGFPTDMQAQFMALLSVAKGKSRIKENIFEHRFHHAQELNRLGANITVRGNTAYVEGVERLYGSEVYSTDLRASASLVLAGLVAQGETVVRDVYHLDRGYEKLEEKLKKLGADIERVSEL | soluble
6 | MVIIMQFYKEENFKEMHGLRVPEDWEVVRIGDFIKYIKGKKPAVMVDEELEGYYPYLSTEYLRDGIASKFVKITNKEIIVNENDILLLWDGSNAGEIFLGKKGILSSTMVKLEQKNKIMDDLYLFYSLKLKESFLKSQTKGTGIPHVDKKIFENIKIPLPPLEEQKQIAKILSDFDNLIGTINKQIEVLNKAKKGMMKKLFTKGVFEHKSFKKSEIGEIPEDWEVVKLKEVVDIQSGKYFKYSEFCENGVKCLKIDNVGFGKIFWETVSFLPEDYLNKYPQLVLKSGDIVLALNRPIIGGKIKIGILKDIDEPAILYQRVGRFIFKSEKIDKQFLFYLLMSEYFKKELSKLLIGTDQPYIRTPVLLNIKIPLPHLEEQKAMAERLKSIDNLIEIKRKEKEQIEKAKKKIMNLLLTGKIRVKNLNF | soluble
7 | MGSDKIHHHHHHMRILSGMRPTGKLHIGHLVGALENWVKLQEEGNECFYFVADWHALTTHYDDVSKLKEYTRDLVRGFLACGIDPEKSVIFVQSGVKEHAELALLFSMIVSVSRLERVPTYKEIKSELNYKDLSTAGFLIYPVLQAADILIYKAEGVPVGEDQVYHIELTREIARRFNYLYDEVFPEPEAILSRVPKLPGTDGRKMSKSYGNIINLEISEKELEQTILRMMTDPARVRRSDPGNPENCPVWKYHQAFDISEEESKWVWEGCTTASIGCVDCKKLLLKNMKRKLAPIWENFRKIDEDPHYVDDVIMEGTKKAREVAAKTMEEVRRAMNLMF | soluble
8 | MSDNNDRMYELEYPSPEVSGQTAGGPTLIVALQGYADAGHAVESSSSHLMDALDHRLIASFNNDELIDYRSRRPVVVIEHNEVTSMDELNLGLHVVRDNDNKPFLMLSGPEPDLRWGDFSNAVVDLVEKFGVENTICLYAAPMTVPHTRPTVVTAHGNSTDRLKDQVSLDTRMTVPGSASLMLEKLLKDKGKNVSGYTVHVPHYVSASPYPAATLKLLQSIADSADLNLPLLALERDAEKVHRQLMEQTEESSEIQRVVGALEQQYDSELERYRNRHPQAVMPGESELPSGDEIGAEFEKFLADLDDQGGSDHKETPEA | soluble
9 | MKEIKIGLIGFGTIGTGVAKLLQANAGLIADKVGAMVTLKKIADLDVTTDRGIELPPGTLTSNVADVLDDPEISVVIELIGGYEPAKSFVLRAINNGKHVVTANKALLALHGEEIYPAAAAKGVQVLFEAAVGGGIPVISAILGNMAANNFTTVLGILNGTCNYILTRMTQEGADFGDVLKTAQELGYAEADPTFDIEGVDTAHKLALLVSLCFGTKVDFNAIHTEGISSISSADIGFARDFGYKIKLLAIGKRTGDTVEARVHPTMIPVNYPLADVDGVFNAIRFTGDFIGPVMFYGRGAGMDPTASAVVGDVIEIARNIIAGVSRRCAPLGYRDEAVTTLALKPMGEIEGKYYLRFSAVDKPGVLAKISGALGKYDISIESMIQKGRSAGESVPIVIMTHEAREKDIRAALEEIDTFELISEKSRFIRIEDNLE | not soluble
10 | MERILEKVRAKSEIPVYDKSIENVLSAILTTNDFWKIVDLSEEPLPLVADIIRILEEEGLVKISNGIEFTEKGNEFIKSYGIGAKDNSVCECCEGRGVSLKNYQDLLERFKEIVKNRPMPKHEYDQGFVTPECTISRIALMNSRGDLFNKDVLVLGDDDLTSIALMLSNLPKKIVVVDIDDRLINFIKEVAEQLNYKNIEVITLDLRKPLPEKYSRAFDTFITDPPETVYAVKTFIGRGISALKGERRAGYFGITRRESSLDKWREIQRTLINDFNVVITDIIRNFNHYVNWGYEEETRAWKLAPVKKKPEDIWYKSYMFRIETLKDSRGFEEEVDVGDELYNDAESSTT | not soluble
11 | MTLGTALKQARKAQQLNQKQAARGICAQSMLSAIENDRYVPNARLLLALCQRLGVAVSTLSLADDFEISAEQAFNDRVRQMCNAHQYQQLKDWLLQPTTLEHVQTDEQTQAYYYYLGVACWQVDRTSDAAQQNLRLAIGMAAPSSPPTTLTRLALISLAVVKAHHHPQAPVAALVTRALADIDAGAYEENANIVFYLAGLVAYEQHDSQLAVARLTQGLAFATTHDSHYMLANIYQLMAQLAMAAGETATAQVASQRSQVFKDLFKEQINDRL | not soluble
12 | MGSDKIHHHHHHMKNYTPIQTETTQNHSKSAGMNNQTEKVLDFDECITFLNKKGKELFGLKFFIDPADYEVVYKILIYIIKDERNAQRHKISLDKGIMLSGPVGCGKTTLMNLMNHIIPVANRYIVRSCRLVSYDFISQGYDAIHKYSYQSFKNNKKVVTPQAWCFDDLGTESSLKYYGNECNVMAEILLSRYDLFIEKDMVTHITTNLVAEEIESFYGVRVRSRMREMFNLISFDRNSKDKRV | not soluble
13 | MGSDKIHHHHHHMTQPFKDAIGICKAIMRNGYDAYVVNTQLQSEILDQDCLEIDIACEPGYVELGKIFPGLEMSGEDGVVGTLREGGTLFRFYHTDTDDSSHPEATLARVTPTMLRRLEAKGTLPASLACPFIPSSAETYQGFDDFSKGDIRFEGVPDETLRRSYVLGVRAMRIAANFDLPIEPNSWMAIVRSASRILDYVPVTEIMDEWRKVEAENMYKFVQLMFDSMLLHGLIPELAALSRIRHLRTPEAGEETVLDHTIECMRRYPEELPFDWLGTVATMFHDVGKLYAAEYYNGKWTFYQHHRIGAKVTRKILRRLHFLPEDVDLICHLVRNHMRFHFMLTDKGIRRFKALDEYPRLIEMARADIKARDGNYTHFNHNMKYLERAETPEQMLEPLLNGNEIMEFTGLKPGPYVGVIRDALLKAQVTGEVTSMEEAIEYVKTYSERAPR | not soluble
14 | MGSDKIHHHHHHMPNQPLIFDTAIAKDKPENIRHPHNACPFCDPGQLTDIIAQDADRIWLLNKFPTLQATWQTIVIEAARHDGDIATYSSAQNRAVFTFALKHWQATIASGRFKSVLCYKNFGPHSGGSLRHPHMQIVGLMAADGYANVTAANLTGYSVLAVDQVQVTVSDRPIMGFVEINVAAPATAIAPLADAVQQVVQYTLNTYFHGQCDSYNLFFYPRDDQIVAKVVPLFNVSPYYIGYRLAQADTPKRMRAIAEEIRQQFERSNLAHSN | not soluble
15 | MGSDKIHHHHHHMTKTYHFIGIKGSGMSALALMLHQMGHKVQGSDVEKYYFTQRGLEQAGIQILPFDEKNITADVELIAGNAFRPDNNVEIAYVDAQGYTYKRYHEFLGEFMKGFTSLGVAGAHGKTSTTGLLAHVMRNITDTSFLIGDGTGRGSANAQYFVFESDEYERHFAPYHPEYSIITNIDFDHPDYFTSLEDVFNAFNDYAKQVKKALLVFGEDEQLRRITANAPIYYYGFEENNDFVAYDLKPSTSGSQFKVRHGEEELGEFQIPTFGKHNVMNATAVIANLYIAGFDLQLVAEHLKTFGGVKRRFTEKIVNDTVIIDDFAHHPTEIIATIDAARQKYPSKELVAIFQPHTFTRTIALLDEFADALNGADAVYLAQIYGSARETDNGQVKVEDLAAKINKKGGLVTVENTSPLLDHDNAVYVFMGAGDIQSYEYSFERLLSNLTNNVQ | not soluble
16 | MGSDKIHHHHHHMLNSMRINAFVKFQFPDDLLLNSNLVYGMVNGSTYEREIRDILGGREQAVKKYASKIPEKSDAIMSLIESPFYVTRSAGSFGADVIAIRHDFSMVIEVKSSVRPYLMFSEGSGKKQEQANRINEMCTKAGIFLTYAYRIKNVQGDPWKLFVVESKPIGRFSMVYELIPKIAKTREGNYIMKWEDGLPLSSFIEIINKKII | not soluble
17 | FHLTTRNGEPHMIVSRQEKGKSLLFKTEDGVNMCTLMAMDLGELCEDTITYKCPLLRQNEPEDIDCWCNSTSTWVTYGTCT | soluble
